According to paper PMC2795851:
Where “and” joins values, the source holds several entries; their conditions need not be identical. Equal values may be shown once.

The substances below were run against sfpCHIR-AB1, soluble fusion protein of the extracellular region of CHIR-AB1 and human IgG-Fc (chicken) (assay: SPR; 90RU of purified sfpCHIR-AB1 immobilised on a CM5 sensor surface; purified IgY-Fc (Fcυ2–4) mutants 25–400 nM flowed over; Biacore 3000; 1:1 binding model).

Row | Substance | Ka | koff | kon
1 | chicken IgY-Fc (Fcυ2–4) E437H/L440R (domain or fragment) | 1.8e+08 M⁻¹ | 0.0021 s⁻¹ | 380000 M⁻¹ s⁻¹
2 | chicken IgY-Fc (Fcυ2–4) F557R (domain or fragment) | 7.3e+07 M⁻¹ | 0.013 s⁻¹ | 920000 M⁻¹ s⁻¹
3 | chicken IgY-Fc (Fcυ2–4) H495E (domain or fragment) | 1.1e+08 M⁻¹ | 0.0015 s⁻¹ | 170000 M⁻¹ s⁻¹
4 | chicken IgY-Fc (Fcυ2–4) N376D (domain or fragment) | 2e+08 M⁻¹ | 0.0021 s⁻¹ | 410000 M⁻¹ s⁻¹
5 | chicken IgY-Fc (Fcυ2–4) R490E (domain or fragment) | 4.5e+08 M⁻¹ | 0.00051 s⁻¹ | 230000 M⁻¹ s⁻¹
6 | chicken IgY-Fc (Fcυ2–4) R496E (domain or fragment) | 1.8e+08 M⁻¹ | 0.0013 s⁻¹ | 220000 M⁻¹ s⁻¹

Next, values leading:

Row | Ka | koff | kon | Substance
7 | 9.3e+06 M⁻¹ | 0.0011 s⁻¹ | 11000 M⁻¹ s⁻¹ | chicken IgY-Fc (Fcυ2–4) R556E (domain or fragment)
8 | 9.5e+07 M⁻¹ | 0.0044 s⁻¹ | 420000 M⁻¹ s⁻¹ | chicken IgY-Fc (Fcυ2–4) S346D/C347P/S348R/P349G (domain or fragment)
9 | 2.1e+08 M⁻¹ and 1.4e+08 M⁻¹ | 0.0012 s⁻¹ and 0.0021 s⁻¹ | 300000 M⁻¹ s⁻¹ and 260000 M⁻¹ s⁻¹ | chicken IgY-Fc fragment containing heavy chain constant domains 2, 3 and 4 (Fcυ2–4), wild type (domain or fragment)
